Laboratory results: PMC2148137 (The Journal of Cell Biology, 1998)

Target: T1, GST–Kic1p full-length fusion (S. cerevisiae, UniProt P38692 1-1080)
T1 sequence (looked up): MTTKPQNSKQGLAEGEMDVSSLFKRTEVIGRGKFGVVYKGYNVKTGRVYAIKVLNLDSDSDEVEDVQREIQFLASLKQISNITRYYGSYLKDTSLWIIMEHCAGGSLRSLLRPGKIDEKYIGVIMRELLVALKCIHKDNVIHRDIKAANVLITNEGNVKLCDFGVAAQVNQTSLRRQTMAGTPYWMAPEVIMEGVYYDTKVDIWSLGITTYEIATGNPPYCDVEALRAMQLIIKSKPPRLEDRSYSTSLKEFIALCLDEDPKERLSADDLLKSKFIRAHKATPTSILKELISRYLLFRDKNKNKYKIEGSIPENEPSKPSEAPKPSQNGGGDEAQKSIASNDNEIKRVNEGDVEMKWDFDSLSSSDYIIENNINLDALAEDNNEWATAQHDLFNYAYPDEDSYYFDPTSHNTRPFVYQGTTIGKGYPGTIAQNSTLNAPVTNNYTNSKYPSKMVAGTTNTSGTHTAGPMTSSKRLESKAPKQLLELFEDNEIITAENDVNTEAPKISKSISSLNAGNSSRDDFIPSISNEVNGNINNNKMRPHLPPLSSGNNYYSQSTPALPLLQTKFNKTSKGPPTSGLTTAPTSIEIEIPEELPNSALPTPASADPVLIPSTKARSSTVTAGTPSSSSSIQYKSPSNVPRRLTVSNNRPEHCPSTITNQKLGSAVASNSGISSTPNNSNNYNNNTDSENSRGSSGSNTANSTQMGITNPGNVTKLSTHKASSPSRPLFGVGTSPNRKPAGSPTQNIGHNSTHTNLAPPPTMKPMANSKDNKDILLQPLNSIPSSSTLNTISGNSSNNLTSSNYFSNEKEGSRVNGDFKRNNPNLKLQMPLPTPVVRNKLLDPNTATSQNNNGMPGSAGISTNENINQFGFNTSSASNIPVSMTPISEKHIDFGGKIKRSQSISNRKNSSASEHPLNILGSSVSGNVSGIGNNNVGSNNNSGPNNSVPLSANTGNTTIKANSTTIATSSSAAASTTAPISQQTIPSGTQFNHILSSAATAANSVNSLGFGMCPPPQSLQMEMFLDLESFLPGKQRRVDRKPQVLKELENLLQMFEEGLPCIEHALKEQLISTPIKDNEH
Assay: far-Western, overlay or dot blot

B1: radiolabeled Cdc31p purified from bacteria (natural protein, S. cerevisiae, UniProt P06704 1-161, looked up)
chain: MSKNRSSLQSGPLNSELLEEQKQEIYEAFSLFDMNNDGFLDYHELKVAMKALGFELPKREILDLIDEYDSEGRHLMKYDDFYIVMGEKILKRDPLDEIKRAFQLFDDDHTGKISIKNLRRVAKELGETLTDEELRAMIEEFDLDGDGEINENEFIAICTDS
modifications: radiolabeled
Does B1 bind?
Result: binds
